From patent US20180162947A1 (UCB, published 2018)
Where “and” joins values, the source holds several entries; their conditions need not be identical. Equal values may be shown once.

Legend:
[1] = target: T1, recombinant human CSF-1R (form not stated) (human, UniProt P07333 20-512, limits assumed); test: BIAcore, DG/SG comparison, crude cell supernatant
T1 construct: for the ELISA no species is stated; also called recombinant CSF-1R; recombinant CSF-1R protein

[2] = target: T1, recombinant human CSF-1R (form not …); test: ELISA ligand-blocking assay, antibody pre-mixed with 1 ng/ml CSF-1 (competitor), plate-bound CSF-1R
Description: (§1) This method is from here on referred to as the ‘ELISA ligand-blocking assay’.

[3] = target: T2, human CSF-1R on cells (THP-1 cells, transfected HEK293F cells, primary human monocytes) (human, UniProt P07333 20-972); test: inhibition of CSF-1 binding to THP-1 cells
T2 construct: whole, on cells; also called hCSF-1R; cell-surface CSF-1R
T2 sequence (P07333 20-972): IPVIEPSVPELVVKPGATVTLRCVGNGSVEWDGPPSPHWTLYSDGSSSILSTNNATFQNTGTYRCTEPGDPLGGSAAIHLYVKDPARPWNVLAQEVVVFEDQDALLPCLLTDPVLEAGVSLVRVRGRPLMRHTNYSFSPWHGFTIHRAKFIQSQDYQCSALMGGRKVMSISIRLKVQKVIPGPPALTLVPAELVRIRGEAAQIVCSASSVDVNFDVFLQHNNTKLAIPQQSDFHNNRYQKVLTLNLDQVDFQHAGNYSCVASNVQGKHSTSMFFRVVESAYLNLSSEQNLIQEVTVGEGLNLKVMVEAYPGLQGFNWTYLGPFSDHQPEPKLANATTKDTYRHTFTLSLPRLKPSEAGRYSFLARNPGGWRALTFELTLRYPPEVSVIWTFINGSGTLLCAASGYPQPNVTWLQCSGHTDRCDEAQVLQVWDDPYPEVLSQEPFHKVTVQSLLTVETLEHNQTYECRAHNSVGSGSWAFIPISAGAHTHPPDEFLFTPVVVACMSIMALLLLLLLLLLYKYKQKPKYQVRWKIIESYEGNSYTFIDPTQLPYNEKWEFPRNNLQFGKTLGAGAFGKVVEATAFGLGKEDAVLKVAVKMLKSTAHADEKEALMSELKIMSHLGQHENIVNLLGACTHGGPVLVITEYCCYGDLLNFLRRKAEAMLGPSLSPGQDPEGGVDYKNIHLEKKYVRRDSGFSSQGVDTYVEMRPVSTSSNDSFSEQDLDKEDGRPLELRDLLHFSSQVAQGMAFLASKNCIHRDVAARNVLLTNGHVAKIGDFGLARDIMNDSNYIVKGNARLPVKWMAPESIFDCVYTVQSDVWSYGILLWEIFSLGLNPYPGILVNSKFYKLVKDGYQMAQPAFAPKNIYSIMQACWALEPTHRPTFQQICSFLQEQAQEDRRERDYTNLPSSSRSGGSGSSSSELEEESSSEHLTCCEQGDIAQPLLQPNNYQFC

[4] = target: T1, recombinant human CSF-1R (form not …); test: BIAcore, experiment 3 of 3
Method: (§2) The assay format was capture of the anti-CSF-1R antibodies by immobilised anti-human IgG,F(ab′)₂, then a titration of hCSF-1R/Fc over the captured surface. BIA (Biomolecular Interaction Analysis) was performed using a BIAcore 3000 (GE Healthcare Bio-Sciences AB). All experiments were performed at 25° C. An AffiniPure F(ab′)₂ fragment goat anti-human IgG, F(ab′)₂ fragment specific (Jackson ImmunoResearch), was immobilised on a CM5 Sensor Chip (GE Healthcare Bio-Sciences AB) via amine coupling chemistry to a level of ˜5000 response units (RU). HBS-EP buffer (10 mM HEPES, pH 7.4, 0.15M NaCl, 3 mM EDTA, 0.005% Surfactant P20, GE Healthcare Bio-Sciences AB) was used as the running buffer with a flow rate of 10 μl/min.

[5] = target: T1, recombinant human CSF-1R (form not …); test: ELISA ligand-blocking assay, antibody pre-mixed with 10 ng/ml CSF-1 (competitor), plate-bound CSF-1R
Description: as §1

[6] = target: T1, recombinant human CSF-1R (form not …); test: BIAcore, purified antibody, experiment 1
[7] = target: T2, human CSF-1R on cells (THP-1 cells, …); test: cell-based or functional assay
[8] = target: T1, recombinant human CSF-1R (form not …); test: ELISA ligand-blocking assay, antibody pre-mixed with 100 ng/ml CSF-1 (competitor), plate-bound CSF-1R
Description: as §1

[9] = target: T1, recombinant human CSF-1R (form not …); test: BIAcore, experiment 2 of 3
Method: as §2

[10] = target: T1, recombinant human CSF-1R (form not …); test: BIAcore, experiment 1 of 3
Method: as §2

[11] = target: T1, recombinant human CSF-1R (form not …); test: BIAcore, purified antibody, experiment 2
[12] = target: T2, human CSF-1R on cells (THP-1 cells, …); test: cell-based or functional assay; remark: listed apart in the source
[13] = target: T2, human CSF-1R on cells (THP-1 cells, …); test: cell-based or functional assay; remark: listed apart in the source
[14] = target: T1, recombinant human CSF-1R (form not …); test: BIAcore, purified antibody, mean
[15] = target: T3, recombinant human CSF-1R/Fc fusion protein (R&D Systems) (human, UniProt P07333 20-517); test: BIAcore 3000, antibody captured by anti-human IgG F(ab')2, hCSF-1R/Fc in solution, 25 C
T3 construct: extracellular domain; Bought from R&D Systems; also called hCSF-1R/Fc; not shown: Fc part of the bought fusion protein, not described
T3 sequence (P07333 20-517): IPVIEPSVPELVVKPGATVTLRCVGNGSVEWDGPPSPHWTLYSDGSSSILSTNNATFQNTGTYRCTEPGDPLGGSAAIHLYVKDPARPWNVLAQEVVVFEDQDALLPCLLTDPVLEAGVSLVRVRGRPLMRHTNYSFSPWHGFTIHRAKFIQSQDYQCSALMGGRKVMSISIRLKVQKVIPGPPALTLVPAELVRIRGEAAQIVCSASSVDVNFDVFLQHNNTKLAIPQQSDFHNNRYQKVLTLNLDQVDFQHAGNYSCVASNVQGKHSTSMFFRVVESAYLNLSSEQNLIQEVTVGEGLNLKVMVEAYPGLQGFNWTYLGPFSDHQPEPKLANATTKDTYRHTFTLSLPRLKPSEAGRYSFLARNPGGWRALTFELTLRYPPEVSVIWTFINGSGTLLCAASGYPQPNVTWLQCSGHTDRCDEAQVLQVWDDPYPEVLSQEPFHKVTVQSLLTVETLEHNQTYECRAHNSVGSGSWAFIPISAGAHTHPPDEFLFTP
Method: Antibodies were tested for their ability to bind CSF-1R in a BIAcore assay by measurement of binding kinetics to a purified recombinant CSF-1R/Fc fusion protein.
as §2
Recombinant human CSF-1R/Fc (R&D Systems) was passed over the captured anti-CSF-1R antibody at 5 nM at a flow rate of 30 ul/min for 5 min, then the flow rate was increased to 100 ul/min for 30 min for the dissociation phase. The injection at 5 nM was performed twice along with a corresponding buffer control. These sensorgrams were used to generate the dissociation rate. […] These sensorgrams were used to generate the association rate. The surface was regenerated at a flow rate of 10 ul/min by a 10 ul injection of 40 mM HCl followed by a 5 ul injection of 10 mM NaOH. Double referenced background subtracted binding curves were analysed using the BIAevaluation software (version 4.1) following standard procedures. Kinetic parameters were determined from the fitting algorithm.

[16] = target: T1, recombinant human CSF-1R (form not …); test: BIAcore, mean of 3 (fourth row, unlabelled)
Method: as §2

[17] = target: T2, human CSF-1R on cells (THP-1 cells, …); test: quantitative flow cytometry on THP-1 cells, Alexa-488-labelled antibody
[18] = target: T1, recombinant human CSF-1R (form not …); test: BIAcore, recombinant CSF-1R protein
[19] = target: T1, recombinant human CSF-1R (form not …); test: BIAcore, humanisation stage, crude cell supernatant
[20] = target: T4, mouse CSF-1R (form not stated) (mouse, UniProt P09581 20-511, limits assumed); test: not described
T4 construct: also called murine CSF-1R
T4 sequence (looked up): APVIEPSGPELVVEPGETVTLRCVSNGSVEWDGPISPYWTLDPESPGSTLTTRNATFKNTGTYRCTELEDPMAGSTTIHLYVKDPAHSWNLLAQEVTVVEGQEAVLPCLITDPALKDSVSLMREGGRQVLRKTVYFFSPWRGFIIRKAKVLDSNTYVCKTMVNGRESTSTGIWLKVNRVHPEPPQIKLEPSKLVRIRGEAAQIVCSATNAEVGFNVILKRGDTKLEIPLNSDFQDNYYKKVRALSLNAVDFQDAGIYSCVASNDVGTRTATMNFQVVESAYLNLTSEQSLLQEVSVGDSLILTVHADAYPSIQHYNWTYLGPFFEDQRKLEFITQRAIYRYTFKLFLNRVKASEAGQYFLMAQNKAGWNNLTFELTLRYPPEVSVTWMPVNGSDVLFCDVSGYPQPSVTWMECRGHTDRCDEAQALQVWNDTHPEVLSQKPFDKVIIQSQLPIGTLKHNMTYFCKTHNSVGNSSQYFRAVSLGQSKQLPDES

T1 sequence (P07333 20-512 limits assumed): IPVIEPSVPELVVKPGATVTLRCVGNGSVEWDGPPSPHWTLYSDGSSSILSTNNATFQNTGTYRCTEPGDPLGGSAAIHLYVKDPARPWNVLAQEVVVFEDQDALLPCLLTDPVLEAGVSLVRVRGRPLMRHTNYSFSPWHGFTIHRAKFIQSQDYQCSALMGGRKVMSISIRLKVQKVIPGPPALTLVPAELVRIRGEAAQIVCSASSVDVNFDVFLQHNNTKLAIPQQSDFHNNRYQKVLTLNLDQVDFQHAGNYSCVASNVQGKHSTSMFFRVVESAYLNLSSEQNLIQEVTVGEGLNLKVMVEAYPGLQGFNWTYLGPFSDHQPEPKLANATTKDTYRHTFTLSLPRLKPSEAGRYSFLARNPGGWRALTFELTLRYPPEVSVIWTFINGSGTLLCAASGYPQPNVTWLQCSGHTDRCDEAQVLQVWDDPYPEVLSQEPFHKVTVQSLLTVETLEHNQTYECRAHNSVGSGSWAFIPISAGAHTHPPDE

B1: chimeric antibody 969 (rat variable regions, human gamma-4 heavy chain constant region and human kappa chain constant region) (antibody, human IgG4, V domains shown)
VH: QVTLKESGPGILQPSQTLSLTCTFSGFSLTTYGMGVGWIRQPSGKGLEWLANIWWDDDKYYNPSLKNRLTISKDTSNNQAFLKLTNVHTSDSATYYCARIGPIKYPTAPYRYFDFWGPGTMVTVSS
VL: DIQMTQSPASLSASLGETVSIECLASEDIYDNLAWYQKKPGKSPHLLIYYASSLQDGVPSRFSGSGSGTQYSLKINSLESEDAATYFCLQDSEYPWTFGGGTKLELKR
modifications: Alexa-488 label in the cell-based affinity assay; not carried by the letters.
notes: Full-length human IgG4 (S241P)/kappa chimeric; also called Ab969
[1]
  Kd: 2 pM
  koff: 8.53e-06 s⁻¹
  kon: 4.35e+06 M⁻¹ s⁻¹
[2]
  IC50: 0.0128 µg/mL
[3]
  IC50: 0.00289 µg/mL
[4]
  Kd: 3.6 pM
  koff: 9.51e-06 s⁻¹
  kon: 2.68e+06 M⁻¹ s⁻¹
[5]
  IC50: 0.0793 µg/mL
[6]
  Kd: 4.4 pM
  koff: 9.49e-06 s⁻¹
  kon: 2.16e+06 M⁻¹ s⁻¹
[7]
  mean IC50, MCP-1 inhibition assay, primary human monocytes, 100 ng/ml CSF-1: 0.0246 µg/mL
[8]
  IC50: 0.829 µg/mL
[9]
  Kd: 3.9 pM
  koff: 1.1e-05 s⁻¹
  kon: 2.79e+06 M⁻¹ s⁻¹
[10]
  Kd: 3.6 pM
  koff: 1.03e-05 s⁻¹
  kon: 2.83e+06 M⁻¹ s⁻¹
[11]
  Kd: 4.2 pM
  koff: 9.1e-06 s⁻¹
  kon: 2.16e+06 M⁻¹ s⁻¹
[12]
  IC50, MCP-1 inhibition assay, Donor 1: 0.031 µg/mL
  IC50, MCP-1 inhibition assay, Donor 2: 0.0057 µg/mL
  IC50, MCP-1 inhibition assay, Donor 3: 0.0594 µg/mL
  IC50, MCP-1 inhibition assay, Donor 4: 0.0417 µg/mL
  IC50, MCP-1 inhibition assay, Donor 5: 0.0209 µg/mL
  IC50, MCP-1 inhibition assay, Donor 6: 0.007 µg/mL
[13]
  IC50, IL-34-dependent human monocyte assay (MCP-1 by ELISA), 100 ng/ml IL-34, Donor 1: 0.0201 µg/mL
  IC50, IL-34-dependent human monocyte assay (MCP-1 by ELISA), 100 ng/ml IL-34, Donor 2: 0.00979 µg/mL
[14]
  Kd: 4.3 pM
  koff: 9.3e-06 s⁻¹
  kon: 2.16e+06 M⁻¹ s⁻¹
[15]
  Kd: 9.65 pM and 9.6 pM
  koff: 2.49e-05 s⁻¹
  kon: 2.58e+06 M⁻¹ s⁻¹
[16]
  Kd: 3.7 pM
  koff: 1.03e-05 s⁻¹
  kon: 2.77e+06 M⁻¹ s⁻¹
[17]
  Kd: 2200 pM
[18]
  Kd: 4.8 pM
[19]
  Kd: 3.5 pM
  koff: 7.99e-06 s⁻¹
  kon: 2.31e+06 M⁻¹ s⁻¹

B2: Ab969.g2 (969gH2gL7) (antibody, human IgG4 S228P, kappa, V domains shown)
VH: EVTLKESGPALVKPTQTLTLTCTFSGFSLTTYGMGVGWIRQPPGKALEWLANIWWDDDKYYNPSLKNRLTISKDTSKNQVVLTMTNMDPVDTATYYCARIGPIKYPTAPYRYFDFWGQGTMVTVSS
VL: DIQMTQSPSSLSASVGDRVTITCLASEDIYDNLAWYQQKPGKAPKLLIYYASSLQDGVPSRFSGSGSGTDYTLTISSLQPEDFATYYCLQDSEYPWTFGGGTKVEIKR
notes: Full-length humanised IgG4 (S241P), human kappa (Km3 allotype); also called 969gH2gL7 DG; Ab969.2
[20]
  binding result: no binding
